{"source": "paper PMC8293163", "about": "(2021)", "binders": {"B1": {"name": "10E8v4-P100fA Fab (Fab, V domains shown)", "VH": "EVRLVESGGGLVKPGGSLRLSCSASGFDFDNAWMTWVRQPPGKGLEWVGRITGPGEGWSVDYAESVKGRFTISRDNTKNTLYLEMNNVRTEDTGYYFCARTGKYYDFWSGYAPGEEYFQDWGQGTLVIVSS", "VL": "ASELTQDPAVSVALKQTVTITCRGDSLRSHYASWYQKKPGQAPVLLFYGKNNRPSGIPDRFSGSASGNRASLTITGAQAEDEADYYCSSRDKSGSRLSVFGGGTKLTVL"}, "B2": {"name": "10E8v4-H31FLC Fab (Fab, V domains shown)", "VH": "B1 VH with A112P", "VL": "SELTQDPAVSVALKQTVTITCRGDSLRSFYASWYQKKPGQAPVLLFYGKNNRPSGIPDRFSGSASGNRASLTITGAQAEDEADYYCSSRDKSGSRLSVFGGGTKLTVL"}, "B3": {"name": "10E8v4-P100gA Fab (Fab, V domains shown)", "VH": "B1 VH with A112P, P113A", "VL": "B1 VL"}, "B4": {"name": "10E8v4-P100fA-P100gA Fab (Fab, V domains shown)", "VH": "B1 VH with P113A", "VL": "B1 VL"}, "B5": {"name": "10E8v4 Fab (Fab, V domains shown)", "VH": "B1 VH with A112P", "VL": "B2 VL with F29H"}}, "note": "Residue numbers refer to the chain shown, from its start."}
{"molecular_target": "T117-F MPER scaffold", "test": "BLI", "units": {"koff": "s⁻¹"}}
{"binder": "B1", "koff": 0.021}
{"binder": "B2", "koff": 0.0364}
{"binder": "B3", "koff": 0.0314}
{"binder": "B4", "koff": 0.0583}
{"binder": "B5", "koff": 0.00137}
{"molecular_target": "T117-F MPER scaffold", "test": "BLI", "remark": "another data set of the same source", "units": {"Kd": "µM"}}
{"binder": "B1", "Kd": 0.103}
{"binder": "B2", "Kd": 1.46}
{"binder": "B3", "Kd": 0.171}
{"binder": "B4", "Kd": 2.75}
{"binder": "B5", "Kd": 0.0094}
